Residue numbers refer to the chain shown, from its start. Positions of bridges follow the written chain, without caps; N, C: chain ends. No end group written: not given here. *: point of attachment. 125I = [125I]*
How the values were obtained:
Experiment in all cases: 125I-OxA binding on CHO-S cells expressing the OX1R mutant
[1] = biological target: T1, OX1R I98A (human, UniProt O43613 1-425)
T1 construct: site-directed mutant (TM2) stably expressed in CHO-S cells; not shown: YFP from vector pEYFP-N2 fused at the C-terminus
T1 chain: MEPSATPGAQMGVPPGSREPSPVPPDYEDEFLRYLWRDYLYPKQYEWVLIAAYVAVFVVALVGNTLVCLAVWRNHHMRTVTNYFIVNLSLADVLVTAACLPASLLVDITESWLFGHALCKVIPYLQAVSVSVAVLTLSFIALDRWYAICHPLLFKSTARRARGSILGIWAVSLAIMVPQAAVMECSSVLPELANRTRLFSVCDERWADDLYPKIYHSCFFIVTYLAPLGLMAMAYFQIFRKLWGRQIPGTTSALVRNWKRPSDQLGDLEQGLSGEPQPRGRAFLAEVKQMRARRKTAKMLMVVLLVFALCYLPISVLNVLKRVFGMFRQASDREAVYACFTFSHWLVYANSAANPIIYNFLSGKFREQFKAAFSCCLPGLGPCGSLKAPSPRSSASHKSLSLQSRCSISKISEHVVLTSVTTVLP
Method: (§1) CHO—S cells expressing recombinant native or mutated OX1R were grown as previously described (El Firar et al., 2009) and maintained at 37° C. in a humidified 5% CO₂/air incubator. ¹²⁵I-orexia-A (74 TBq/mmol) was prepared as previously described (El Firar et al., 2009). […] Free peptides were removed by 2 cell washing cycles with PBS. […] Data were analyzed using the GraphPad software (http://www.graphpad.com).
(§2) All residues of OX1R fulfilling this condition were mutated to alanine by site-directed mutagenesis (Table II).

[2] = biological target: T2, OX1R C99A (human, UniProt O43613 1-425)
T2 construct: site-directed mutant (TM2) stably expressed in CHO-S cells; not shown: YFP from vector pEYFP-N2 fused at the C-terminus
T2 chain: T1 chain with A98I, C99A
Method: as §1, §2

[3] = biological target: T3, OX1R V121A (human, UniProt O43613 1-425)
T3 construct: site-directed mutant (TM3) stably expressed in CHO-S cells; not shown: YFP from vector pEYFP-N2 fused at the C-terminus
T3 chain: T1 chain with A98I, V121A
Method: as §1, §2

[4] = biological target: T4, OX1R N318A (human, UniProt O43613 1-425)
T4 construct: site-directed mutant (TM6) stably expressed in CHO-S cells; not shown: YFP from vector pEYFP-N2 fused at the C-terminus
T4 chain: T1 chain with A98I, N318A
Method: as §1, §2

[5] = biological target: T5, OX1R Y348A (human, UniProt O43613 1-425)
T5 construct: site-directed mutant (TM7) stably expressed in CHO-S cells; not shown: YFP from vector pEYFP-N2 fused at the C-terminus
T5 chain: T1 chain with A98I, Y348A
Method: as §1, §2

Measured: binding result

QPLPDCCRQKTCSCRLY(125I)ELLHGAGNHAAGILTL (peptide, UniProt O43612 34-66, looked up, disulfide 6-12, 7-14; not fully specified (residue 1, C-terminus), mature; also called OxA) [125I-orexin-A]
binds: all assays above

— US20180044393A1 (INSERM INSTITUT NATIONAL DE LA SANT ET DE LA RECHERCHE M …, published 2018)
